In the Human Domainome abundance scans (Beltran et al. 2025):

B1: Far upstream element-binding protein 1, residues 184 to 257; numbered along this chain, Q96AE4 (parent)
chain: GNAVQEIMIPASKAGLVIGKGGETIKQLQERAGVKMVMIQDGPQNTGADKPLRITGDPYKVQQAKEMVLELIRD

Variants of: B1
Experiment: abundance fitness (aPCA) (normalised: wild type 0, dead -1); higher = more abundant; growth selection in yeast, the domain comes from the species named
Conditions: Homo sapiens

Abundance fitness, by site and new letter:
K26: M -0.122 | V -0.157 | R -0.021 | T -0.066 | H -0.198 | G -0.098 | Y -0.041 | N -0.09 | L -0.087 | I 0.013 | F -0.129 | E -0.093 | D -0.111 | P -0.447 | C -0.179
I25: G -0.624 | K -0.371 | V -0.125 | M 0.03 | Y -0.332 | R -0.316 | D -0.359 | C -0.267 | H -0.324 | S -0.387 | P -0.64 | E -0.638 | L 0.002 | F -0.158 | A -0.32 | T -0.361
Q27: Y -0.129 | I -0.019 | K 0.032 | C -0.08 | R -0.011 | G -0.013 | M -0.008 | W -0.05 | T -0.081 | E -0.001 | H -0.008 | V -0.095 | N -0.012 | D -0.005 | S -0.021 | A -0.05 | L -0.083
T24: S -0.078 | I -0.11 | D -0.208 | F -0.101 | R -0.013 | N -0.075 | C -0.061 | G -0.008 | K 0.007 | L -0.099 | P -0.206 | M 0.002 | A -0.075 | Y -0.116 | W -0.224 | E -0.08 | H -0.029 | V -0.029 | Q -0.012
I9: Y -0.891 | P -0.905 | H -0.905 | Q -0.768 | N -0.785 | L -0.087 | A -1 | M -0.312 | V 0.009 | F -0.737 | S -0.913 | W -0.964 | T -0.749
A14: C 0.031 | D -0.109 | G -0.193 | V -0.017 | Q 0.028 | T 0.035 | I 0.039 | Y -0.039 | S -0.049 | M 0.033 | P -0.643 | F -0.022 | H 0.034 | N -0.061 | E -0.014 | K -0.065 | L 0.042 | R 0.001
A11: W -0.17 | Q -0.078 | Y -0.089 | T -0.08 | G -0.098 | M -0.094 | L -0.092 | E -0.098 | D -0.014 | V -0.071 | H -0.133 | N 0.021 | K -0.011 | C -0.034 | R -0.1 | F -0.13 | I -0.096
E23: F -0.101 | K 0.062 | T 0.041 | R 0.136 | M -0.041 | L -0.051 | G 0.018 | Y -0.067 | D -0.037 | V -0.063 | P -0.434 | I -0.051 | Q -0.021 | W -0.087 | H 0.072 | S 0.043 | N -0.026 | A 0.042 | C -0.011
G22: L -0.157 | A 0.003 | Y -0.237 | C -0.106 | K -0.14 | M -0.115 | F -0.145 | V -0.261 | H -0.127 | P -0.328 | E -0.056 | I -0.417 | S -0.114 | R -0.116 | T -0.29 | Q -0.075
K13: V -0.091 | Y -0.091 | C -0.008 | W -0.3 | A -0.094 | Q -0.035 | P -0.659 | S -0.078 | D -0.155 | I -0.015 | R -0.187 | G -0.231 | F -0.182 | H -0.032 | E -0.139 | T -0.218 | L -0.114
S12: T 0.001 | W -0.123 | A 0.012 | R -0.025 | H -0.018 | K 0.011 | M -0.071 | L -0.112 | Q -0.077 | D 0.004 | Y -0.13 | C -0.133 | F -0.207 | I -0.032 | P -0.008 | G 0.002 | N 0 | V -0.059 | E -0.016
G15: C 0.127 | L -0.026 | S -0.04 | T -0.093 | N 0.011 | D -0.031 | Q -0.031 | M 0.042 | V -0.026 | P -0.128 | I -0.028 | E 0.04 | Y -0.035 | A -0.126 | R -0.041 | W -0.005
K20: T -0.035 | G -0.105 | N -0.016 | H -0.045 | E -0.01 | V -0.031 | F -0.07 | P -0.026 | M -0.112 | W -0.166 | A 0.02 | C -0.14 | S -0.042 | I -0.129 | Y -0.023 | D 0.049
L28: C -0.399 | A -0.467
V17: K -0.679 | S -0.505 | A -0.427 | W -0.294 | C -0.272 | M -0.08 | N -0.594 | P -0.759 | Y -0.428 | G -0.599 | H -0.589 | Q -0.703 | R -0.687 | E -0.503 | D -0.479 | I -0.06
G19: N -0.278 | V -0.763 | M -0.551 | I -0.931 | R -0.438 | P -0.629 | Y -0.685 | A -0.339 | F -0.519 | K -0.445 | Q -0.363 | C -0.473 | D -0.204 | L -0.598 | S -0.366 | E -0.297 | T -0.371 | H -0.376
I18: V -0.018 | A 0.038 | C -0.12 | P -0.292 | Y -0.106 | H -0.009 | E -0.028 | K -0.117 | Q -0.058 | L 0.008 | R -0.104 | M -0.065 | G -0.148 | D -0.152 | T 0.011 | S -0.09
P10: C -0.598 | H -0.398 | R -0.513 | G -0.557 | F -1.13 | W -1.22 | A -0.468 | M -0.678 | Y -1.03 | S -0.367 | T -0.456 | Q -0.391 | L -0.922 | V -0.946 | D -0.355 | K -0.287 | E -0.364 | N -0.299 | I -0.903
L16: T -0.058 | H -0.15 | N -0.103 | G -0.191 | A -0.028 | W -0.068 | R -0.087 | Y -0.045 | P -0.581 | M -0.018 | C -0.147 | D -0.053 | F 0.003 | I -0.048 | Q -0.093 | E -0.06 | K -0.008 | S -0.122
G21: M -0.033 | T -0.05 | Q -0.028 | S -0.033 | C -0.076 | D -0.024 | H -0.015 | I -0.278 | E -0.059 | N 0.05 | R 0.003 | F -0.05 | P -0.493 | V -0.219 | K 0.015 | L -0.1
M8: N -0.078 | W -0.164 | L -0.075 | P -0.094 | R -0.074 | I -0.011 | V -0.323 | Y -0.133 | S -0.121 | Q -0.03 | T -0.106
